Substitutions are numbered along the chain they refer to.
B1: R3P34 (peptide)
peptide: HSDAVFTDNYTRLRKQLAAKKYLNDIKKQ
B2: R3P33 (peptide)
peptide: HSDAVFTDNYTRLRKQLAAKKYLNDIKK
B3: R3P41 (peptide)
peptide: HSDAVFTDNYTRLRKQMAVKKYLNSIKK
B4: R3P36 (peptide)
peptide: HSDAVFTDNYTRLRKQLAAKKYLNDIKKKRY
B5: R3P42 (peptide)
peptide: HSDAVFTDNYTRLRKQMAVKKYLNSIKN
B6: R3P22 (peptide)
peptide: HSDAVFTDNYTRLRKQLAAKKYLNSIKKGGT
B7: R3P26 (peptide)
peptide: B6 peptide with L17M
B8: R3P29 (peptide)
peptide: B6 peptide with A19V, S25D, K28N
B9: R3P25 (peptide)
peptide: B6 peptide with A19V
B10: R3P30 (peptide)
peptide: B6 peptide with K28N
B11: R3P35 (peptide)
peptide: HSDAVFTDNYTRLRKQLAAKKYLNDIKKNQ
B12: R3P32 (peptide)
peptide: HSDAVFTDNYTRLRKQLAAKKYLNDIKKG
B13: R3P31 (peptide)
peptide: B11 peptide with N29G, Q30G
B14: R3P43 (peptide)
peptide: HSDAVFTDNYTRLRKQMAVKKYLNSILK

Key:
PACAP-R2 = biological target: T1, PACAP-R2 (Homo sapiens, UniProt P32241); test: Cyclic AMP SPA on CHO cells transfected with PACAP-R2; type: cell-based; settings: cAMP SPA, concentration at which 50% of maximum PACAP27 activity is achieved, NA = no detectable activities, read-out: R2 EC50
T1 construct: expressed in transfected cells; host or cells: CHO cells
T1 sequence (P32241 31-457): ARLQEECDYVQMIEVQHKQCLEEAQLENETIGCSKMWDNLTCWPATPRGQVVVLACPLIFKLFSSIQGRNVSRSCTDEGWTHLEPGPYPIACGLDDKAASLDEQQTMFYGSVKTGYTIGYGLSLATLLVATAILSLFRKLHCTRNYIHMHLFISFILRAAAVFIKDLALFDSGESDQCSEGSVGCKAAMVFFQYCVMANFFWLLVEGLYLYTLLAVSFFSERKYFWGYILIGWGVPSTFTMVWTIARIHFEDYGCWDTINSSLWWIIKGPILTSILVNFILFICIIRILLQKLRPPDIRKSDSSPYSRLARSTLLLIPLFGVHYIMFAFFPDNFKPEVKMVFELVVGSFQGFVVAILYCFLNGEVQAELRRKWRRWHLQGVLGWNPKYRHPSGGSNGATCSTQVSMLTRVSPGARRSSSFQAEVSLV
Protocol: CHO cells expressing the PACAP R3 were plated in 96-well plates (Costar) at 8×10^4 cell/well and grown at 37 C. for 24 hours in α MEM+nucleosides+glutamine (Giobco BRL), 10% FBS, 100 μg/ml Pen/Strep, 0.3 mg/ml glutamine, 1 mM HEPES, 0.5 mg/ml Geneticin (Gibco BRL). The media was removed and the plates were washed with PBS. The cells were incubated with a peptide, in Hepes-PBS-BSA with 0.4 mg/mlSoybean Trypsin Inhibitor, 0.5 mg/ml Bacitracin, 100 uM IBMX, for 15 min at 37 C. Cyclic AMP in the cell extracts was quantitated using the cAMP SPA direct screening assay system (Amersham Pharmacia Biotech Inc, Piscataway, N.J.,). The peptides shown in Table 3 were assayed for cAMP activity.
EC50 is defined as the concentration of the polypeptide at which 50% of maximum PACAP27 activity is achieved. “NA” denotes no detectable activities. “R3 Selectivity” is derived from the ratio of EC50 at R2 versus EC50 at R3.

PACAP-R3 = biological target: T2, PACAP-R3 (human, UniProt P41587 24-438); test: cell-based or functional assay
T2 sequence (looked up): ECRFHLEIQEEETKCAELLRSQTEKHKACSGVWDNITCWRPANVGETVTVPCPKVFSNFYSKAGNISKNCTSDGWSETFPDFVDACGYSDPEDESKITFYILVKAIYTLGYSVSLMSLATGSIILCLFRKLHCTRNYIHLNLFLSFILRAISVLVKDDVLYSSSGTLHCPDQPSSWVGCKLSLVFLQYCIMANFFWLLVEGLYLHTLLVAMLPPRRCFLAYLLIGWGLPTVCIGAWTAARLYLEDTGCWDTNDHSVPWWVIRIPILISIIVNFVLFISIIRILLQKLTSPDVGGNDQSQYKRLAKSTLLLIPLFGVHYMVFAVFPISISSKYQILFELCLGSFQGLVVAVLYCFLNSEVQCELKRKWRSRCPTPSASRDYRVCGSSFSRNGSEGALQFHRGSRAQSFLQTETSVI

Row | Molecule | EC50 (PACAP-R2) [pM] | R3 EC50 (PACAP-R3) [pM] | R3 Selectivity (PACAP-R3)
1 | CC[C@H](C)[C@H](NC(=O)[C@H](CO)NC(=O)[C@H](CC(N)=O)NC(=O)[C@H](CC(C)C)NC(=O)[C@H](Cc1ccc(O)cc1)NC(=O)[C@H](CCCCN)NC(=O)[C@H](CCCCN)NC(=O)[C@H](C)NC(=O)[C@H](C)NC(=O)[C@H](CCSC)NC(=O)[C@H](CCC(N)=O)NC(=O)[C@H](CCCCN)NC(=O)[C@H](CCCNC(=N)N)NC(=O)[C@H](CC(C)C)NC(=O)[C@H](CCCNC(=N)N)NC(=O)[C@@H](NC(=O)[C@H](Cc1ccc(O)cc1)NC(=O)[C@H](CC(N)=O)NC(=O)[C@H](CC(=O)O)NC(=O)[C@@H](NC(=O)[C@H](Cc1ccccc1)NC(=O)[C@@H](NC(=O)[C@H](C)NC(=O)[C@H](CC(=O)O)NC(=O)[C@H](CO)NC(=O)[C@@H](N)Cc1c[nH]cn1)C(C)C)[C@@H](C)O)[C@@H](C)O)C(=O)N[C@@H](CCSC)C(=O)N[C@@H](CC(N)=O)C(=O)N[C@@H](CCCCN)C(=O)N[C@@H](CCCNC(=N)N)C(=O)O [Peptide R3P124] | 3000 | – | –
2 | CC[C@H](C)[C@H](NC(=O)[C@H](CO)NC(=O)[C@H](CC(N)=O)NC(=O)[C@H](CC(C)C)NC(=O)[C@H](Cc1ccc(O)cc1)NC(=O)[C@H](CCCCN)NC(=O)[C@H](CCCCN)NC(=O)[C@H](C)NC(=O)[C@H](C)NC(=O)[C@H](CCSC)NC(=O)[C@H](CCC(N)=O)NC(=O)[C@H](CCCCN)NC(=O)[C@H](CCCNC(=N)N)NC(=O)[C@H](CC(C)C)NC(=O)[C@H](CCCNC(=N)N)NC(=O)[C@@H](NC(=O)[C@H](Cc1ccc(O)cc1)NC(=O)[C@H](CC(N)=O)NC(=O)[C@H](CC(=O)O)NC(=O)[C@@H](NC(=O)[C@H](Cc1ccccc1)NC(=O)[C@@H](NC(=O)[C@H](C)NC(=O)[C@H](CC(=O)O)NC(=O)[C@H](CO)NC(=O)[C@@H](N)Cc1c[nH]cn1)C(C)C)[C@@H](C)O)[C@@H](C)O)C(=O)N[C@@H](CCCCN)C(=O)N[C@@H](CC(N)=O)C(=O)N[C@@H](CCCCN)C(=O)N[C@@H](CC(C)C)C(=O)O [Peptide R3P162] | 20000 | – | –
3 | CC[C@H](C)[C@H](NC(=O)[C@H](CO)NC(=O)[C@H](CC(N)=O)NC(=O)[C@H](CC(C)C)NC(=O)[C@H](Cc1ccc(O)cc1)NC(=O)[C@H](CCCCN)NC(=O)[C@H](CCCCN)NC(=O)[C@H](C)NC(=O)[C@H](C)NC(=O)[C@H](CCSC)NC(=O)[C@H](CCC(N)=O)NC(=O)[C@H](CCCCN)NC(=O)[C@H](CCCNC(=N)N)NC(=O)[C@H](CC(C)C)NC(=O)[C@H](CCCNC(=N)N)NC(=O)[C@@H](NC(=O)[C@H](Cc1ccc(O)cc1)NC(=O)[C@H](CC(N)=O)NC(=O)[C@H](CC(=O)O)NC(=O)[C@@H](NC(=O)[C@H](Cc1ccccc1)NC(=O)[C@@H](NC(=O)[C@H](C)NC(=O)[C@H](CC(=O)O)NC(=O)[C@H](CO)NC(=O)[C@@H](N)Cc1c[nH]cn1)C(C)C)[C@@H](C)O)[C@@H](C)O)C(=O)N[C@H](C(=O)N[C@@H](CC(N)=O)C(=O)N[C@@H](CCCCN)C(=O)N[C@@H](CCCNC(=N)N)C(=O)O)[C@@H](C)CC [Peptide R3P123] | 5000 | – | –
4 | CC[C@H](C)[C@H](NC(=O)[C@H](CO)NC(=O)[C@H](CC(N)=O)NC(=O)[C@H](CC(C)C)NC(=O)[C@H](Cc1ccc(O)cc1)NC(=O)[C@H](CCCCN)NC(=O)[C@H](CCCCN)NC(=O)[C@H](C)NC(=O)[C@H](C)NC(=O)[C@H](CCSC)NC(=O)[C@H](CCC(N)=O)NC(=O)[C@H](CCCCN)NC(=O)[C@H](CCCNC(=N)N)NC(=O)[C@H](CC(C)C)NC(=O)[C@H](CCCNC(=N)N)NC(=O)[C@@H](NC(=O)[C@H](Cc1ccc(O)cc1)NC(=O)[C@H](CC(N)=O)NC(=O)[C@H](CC(=O)O)NC(=O)[C@@H](NC(=O)[C@H](Cc1ccccc1)NC(=O)[C@@H](NC(=O)[C@H](C)NC(=O)[C@H](CC(=O)O)NC(=O)[C@H](CO)NC(=O)[C@@H](N)Cc1c[nH]cn1)C(C)C)[C@@H](C)O)[C@@H](C)O)C(=O)N[C@@H](CCCCN)C(=O)N[C@@H](CC(N)=O)C(=O)N[C@@H](CCCCN)C(=O)N[C@@H](CO)C(=O)O [Peptide R3P167] | 300000 | – | –
5 | CC[C@H](C)[C@H](NC(=O)[C@H](CO)NC(=O)[C@H](CC(N)=O)NC(=O)[C@H](CC(C)C)NC(=O)[C@H](Cc1ccc(O)cc1)NC(=O)[C@H](CCCCN)NC(=O)[C@H](CCCCN)NC(=O)[C@@H](NC(=O)[C@H](C)NC(=O)[C@H](CCSC)NC(=O)[C@H](CCC(N)=O)NC(=O)[C@H](CCCCN)NC(=O)[C@H](CCCNC(=N)N)NC(=O)[C@H](CC(C)C)NC(=O)[C@H](CCCNC(=N)N)NC(=O)[C@@H](NC(=O)[C@H](Cc1ccc(O)cc1)NC(=O)[C@H](CC(N)=O)NC(=O)[C@H](CC(=O)O)NC(=O)[C@@H](NC(=O)[C@H](Cc1ccccc1)NC(=O)[C@@H](NC(=O)[C@H](C)NC(=O)[C@H](CC(=O)O)NC(=O)[C@H](CO)NC(=O)[C@@H](N)Cc1c[nH]cn1)C(C)C)[C@@H](C)O)[C@@H](C)O)[C@@H](C)O)C(=O)N[C@@H](CCCCN)C(=O)N[C@@H](CC(N)=O)C(=O)N[C@@H](CCCCN)C(=O)N[C@@H](CCCNC(=N)N)C(=O)O [Peptide R3P112] | 4000 | – | –
6 | B1 | – | 1400 | > 70
7 | B2 | – | 500 | > 200
8 | B3 | – | 80 | 100
9 | B4 | – | 400 | > 200
10 | B5 | – | 30 | 10
11 | B6 | – | 1600 | 24
12 | B7 | – | 550 | > 180
13 | B8 | – | 500 | > 200
14 | B9 | – | 700 | 20
15 | B10 | – | 400 | 50
16 | B11 | – | 2600 | > 40
17 | B12 | – | 400 | 200
18 | B13 | – | 300 | > 300
19 | B14 | – | 80 | 10

— US6972319B1, “Pituitary adenylate cyclase activating peptide (PACAP)receptor 3 (R3) agonists and their pharmacological methods of use” (priority 1999, dated 2005)
